This is an account of results in patent US20080044425A1, “POLYPEPTIDES HAVING PHOSPHOLIPASE A2 ACTIVITY” (KYOWA HAKKO KOGYO CO., LTD., priority 2000, published 2008).

The assay is described as follows: Measurement of PLA2 activity in the soluble fraction of insect cells (Sf9) expressing the human-derived polypeptide. The format is biochemical. As to conditions: 4 mmol/l calcium chloride, 37° C., 2 hours, control: pVL1393 vector virus, FIG. 10. As to the method:
The supernatant containing the virus recovered in (2) above (2 ml) was added to 28 ml of 1.5×10^6/ml suspending Sf9 cells, and the cells were cultured at 27° C. for 4 days in the suspending state. The cells were recovered by centrifugation at 800 rpm for 5 minutes and washed with phosphate-buffered saline (PBS). The resulting cells were suspended in a buffer consisting of 25 mmol/l Tris-HCl (pH 7.5), 140 mmol/l sodium chloride, 5 mmol/l potassium chloride, 2 mmol/l EDTA and 1× complete, EDTA-free (Boehringer Mannheim) and disrupted on ice using a sonicator. The extract was centrifuged at 15,000 rpm for 15 minutes, and the supernatant was used for the measurement of PLA2 activity.
One hundred μl of a reaction solution [100 mmol/l Tris-HCl (pH 7.5), 4 mmol/l calcium chloride, 1 mg/ml bovine serum albumin (substantially fatty acid-free, Sigma) and 8 μmol/l Triton X-100] containing 1-palmitoyl-2-[1-^14C]arachidonyl-phosphatidylcholine (48 mCi/mmol, Daiichi Kagaku Yakuhin) (2 μmol/l) and the supernatant obtained above was incubated at 37° C. for 2 hours, followed by the addition of Dole reagent (containing 2-propanol, heptane and sulfuric acid at a ratio of 78:20:2) to stop the reaction. To the reaction mixture were further added 0.3 ml of heptane and 0.2 ml of water, and mixing was effected by rotation. […] The amount of the polypeptide was determined using the Bio Rad Protein Assay method. […]

B1: human-derived polypeptide of the present invention: novel human cytoplasmic phospholipase A2 polypeptide having the amino acid sequence shown in SEQ ID NO: 1, Flag-tagged, expressed in insect cells (protein, listed as Homo sapiens)
chain: MLWALWPRWLADKMLPLLGAVLLQKREKRGPLWRHWRRETYPYYDLQVKVLRATNIRGTDLLSKADCYVQLWLPTASPSPAQTRIVANCSDPEWNETFHYQIHGAVKNVLELTLYDKDILGSDQLSLLLFDLRSLKCGQPHKHTFPLNHQDSQELQVEFVLEKSQVPASEVITNGVLVAHPCLRIQGTLRGDGTAPREEYGSGQLQLAVPGAYEKPQLLPLQPPTEPGLPPTFTFHVNPVLSSRLHVELMELLAAVQSGPSTELEAQTSKLGEGGILLSSLPLGQEEQCSVALGEGQEVALSMKVEMSSGDLDLRLGFDLSDGEQEFLDRRKQVVSKALQQVLGLSEALDSGQVPVVAVLGSGGGTRAMSSLYGSLAGLQELGLLDTVTYLSGVSGSTWCISTLYRDPAWSQVALQGPIERAQVHVCSSKMGALSTERLQYYTQELGVRERSGHSVSLIDLWGLLVEYLLYQEENPAKLSDQQEAVRQGQNPYPIYTSVNVRTNLSGEDFAEWCEFTPYEVGFPKYGAYVPTELFGSELFMGRLLQLQPEPRICYLQGMWGSAFATSLDEIFLKTAGSGLSFLEWYRGSVNITDDCQKPQLHNPSRLRTRLLTPQGPFSQAVLDIFTSRFTSAQSFNFTRGLCLHKDYVAGREFVAWKDTHPDAFPNQLTPMRDCLYLVDGGFAINSPFPLALLPQRAVDLILSFDYSLEAPFEVLKMTEKYCLDRGIPFPSIEVGPEDVEEARECYLFAKAEDPRSPIVLHFPLVNRTFRTHLAPGVERQTAEEKAFGDFVINRPDTPYGMMNFTYEPQDFYRLVALSRYNVLNNVETLKCALQLALDRHQARERAGA
modifications: Flag tag
Turning to B1, the “PLA2 activity that hydrolyzes the ester bond at the sn-2-position in 1-palmitoyl-2-arachidonyl-phosphatidylcholine” value is recorded as “has PLA2 activity”.
